Settings: Carica papaya, Thermal, DSC, glycine 0.05M, reversible: No, whole UniProt chain shown

B1: Papain wild type, P00784 (protein)
chain: MAMIPSISKLLFVAICLFVYMGLSFGDFSIVGYSQNDLTSTERLIQLFESWMLKHNKIYKNIDEKIYRFEIFKDNLKYIDETNKKNNSYWLGLNVFADMSNDEFKEKYTGSIAGNYTTTELSYEEVLNDGDVNIPEYVDWRQKGAVTPVKNQGSCGSCWAFSAVVTIEGIIKIRTGNLNEYSEQELLDCDRRSYGCNGGYPWSALQLVAQYGIHYRNTYPYEGVQRYCRSREKGPYAAKTDGVRQVQPYNEGALLYSIANQPVSVVLEAAGKDFQLYRGGIFVGPCGNKVDHAVAAVGYGPNYILIKNSWGTGWGENGYIRIKRGTGNSYGVCGLYTSSFYPVKN
pH 2.9
  Tm: 60.3 °C
  unfolding enthalpy (calorimetric): 133 kcal/mol
pH 3.8
  Tm: 78.5 °C
  unfolding enthalpy (calorimetric): 198 kcal/mol
pH 4.1
  Tm: 81.8 °C
  unfolding enthalpy (calorimetric): 211 kcal/mol

Source: FireProtDB (doi:10.1016/0167-4838(93)90045-s)
